According to the supplement of paper PMC12042874:
± gives the uncertainty stated by the source.

Experiment: amyloid nucleation score (Sup35N fusion, yeast selection) (log enrichment); library NNK3; higher = more nucleation; inactive = no reads after selection
In short: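 The nucleation score, computed with DiMSum, is the log enrichment of output over input reads, centred on the mode score of non-aggregating sequences. Sequences with under 100 input reads were dropped. Reads were generated by Illumina sequencing of plasmid inserts from psi-negative yeast with Sup35N fused to peptides of 20 random codons, induced with 100 μM copper sulfate for 24 hours and grown 7 days at 30°C on medium lacking adenine and uracil.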

Substance | amyloid nucleation score
CSVGSFFRFDIIYWKYAGSL | -0.2 ± 0.36
HSTTSLWSVVSVQSKTFMLK | inactive
FTWRRFRVKSYYDYFASLGV | inactive
EFVDSLLKRGGLFRVFGASS | inactive
IFWICWLGFVNCVYTAEIPT | inactive
NHMCSVYRWQSLERVVCKGI | inactive
VWCPRDFFVSFVPCQ | inactive
WFLVVVTFGWSIGQGQVGA | -0.527 ± 1.1
ALSHKVAVYVYC | inactive
DWTRFPSAFTGVQKSLVD | inactive
SMQKGGK | inactive
LQSFPYQYIITR | inactive
RTLCRLWTLCCRCRSYALFR | inactive
WILLCIRRRMFCRGMCTINN | inactive
TDHNDLMKLFATRCSPNPCL | inactive
FFTRSNVLRSVCFSSPITLW | inactive
LRRTIYFTDDRCLWLDFAPL | 0.272 ± 0.43
MRYVHRCSRWYLLQQLLRIH | inactive
SWPVCWDHIWQSWGLTTSAV | inactive
IMVWLRARSITYNQVDDRGS | inactive
FGFPTFFSMTV | inactive
VCNSYCMPRPRILQSQGGMG | inactive
CSLLGKMLTYNSDYGFQLNY | inactive

Substance | amyloid nucleation score
MIPCLHEFLYLNSWDNKVGL | inactive
WEELDYNSDPLLAGSVTDYM | inactive
LASNFVGASIPPRRACGCRA | inactive
GFIQRKNQRGVKKCRESYYY | inactive
IVYMDECLYQFNGPDVVPMF | inactive
YTRCNISNMV | inactive
VRGNYRNSFACRVLNHDQFW | inactive
CVEIVGMESASCVVMNPLVC | inactive
FNSMYRVELVHCCSHNKICD | 1.41 ± 0.1
VAFFSGWQIVVLFMKVL | inactive
CFCRMNIGGHCGVRRKLKV | inactive
VDVCITFCWIARLMV | inactive
RGVYNEHFCCGFSMWEPING | 2.3 ± 0.067
SVVRVCSSCIVDYRMCESK | 0.927 ± 0.14
GFTAGRFPCGSFWLGSCCWY | 0.231 ± 0.36
KLTVMVMQLASLRLAK | -0.158 ± 0.35
IYPVNFGWLLGFCAHPAIYD | inactive
RHSFMRFRLSNWV | inactive
YFMVRWYCAGLDILCGLQEK | inactive
IMRGITEGWEPLVVES | inactive
ACSRKISSIVATSRLVSTSG | inactive
TENISFECYMEIY | inactive
EAVSCWSRKNMVRYGNGDRA | inactive

Substance | amyloid nucleation score
EFITSYMFSFVYVKNLWCKY | inactive
ESYLQRPRTSTRMFVMRLKV | inactive
LPCWKFGLASHR | inactive
NRSSKWVISYRATICLLPMD | inactive
SFFCN | inactive
LCSFPKH | inactive
VMVSYG | inactive
DIVYQARCA | inactive
CDGPMSYMGLGTAGKR | inactive
SMFRSRFLKVRDVSTTSQCA | inactive
FMPPFASN | inactive
VGNSHASIHPCKVICSLACD | inactive
VYYYKMTGKVYMSLYMGKLL | inactive
YDMFMVSWLKEIDWMQDDPR | inactive
LQSNFRSPTISGFTTEKVGK | inactive
NLGNVHVLLDQSEPVHCILL | inactive
NYYSGMRLSQNKKTST | 0.701 ± 0.11
QVCFQSWDASRSRYRHRLKR | 0.625 ± 0.21
SVRVSIFRGLVRNRWKFDGF | 0.666 ± 0.16
LACRFILNAEVEICLAWKLG | inactive
RHYLLCYIKRHTRLQIYKFS | inactive
CPGVHWHDVK | inactive
IFVLVYNISSNTGNYSIGFV | 0.934 ± 0.15

Substance | amyloid nucleation score
DSTDFRVLRGRRSRGEYVRG | inactive
FLCSTSLFVLVLMLTLTNTP | inactive
HCGYGLFNCK | inactive
GLFCLKFKPTQGVPRQKLL | inactive
GFFCIYWGHWGFSES | inactive
TCHLSKHEISYQLGDTNGHC | -0.516 ± 0.9
SVRHSWTMSVFFSDRNALAN | inactive
FVSIWEHNSIVRRCGVRLDR | inactive
SLTVKFSLLKGESQVDHFVS | -0.158 ± 0.85
YGYALVFTFYVGLNSVNRLR | 0.801 ± 0.3
CLMVKHYFFVSSWRFNVFGI | inactive
YISFVFDRYNKSYGTARICK | -0.506 ± 0.82
SRPVVRVINYYELGHIKVMS | inactive
ICVCEQSTVVYTKELSTFGA | 0.012 ± 0.27
GLSISFTTDFFLKVLSESAR | inactive
HFYRLAYTSISWVYRSLGAE | inactive
ESWCM | inactive
QNFRFYLTCVSGSGHYRSYT | 1.37 ± 0.093
NKRGNCVEKDDCFVMYEWNM | inactive
LINVPDGSSSKLSDMV | inactive
TIYNEGCVCKVYKESLGGSA | inactive
YSNWKLRRRCYLRDNIFWVI | inactive
SDEYTVTFHPSTPGKVSERD | inactive

Substance | amyloid nucleation score
FLFRNLVAWFMHSDLFFYGV | inactive
LWSYITK | inactive
VCHLWSLTVYGAVFQHLNFM | inactive
RLSYQYFCQAMRMEGEFWSY | -0.16 ± 0.33
VHTYLSAEWLVFPRHFAVYK | inactive
RIFRCVEIA | inactive
EDVSSNIRWRHTGKGETVVM | inactive
RNSTMIYTQ | 2.24 ± 0.093
VLSVSLNACTIGWST | 1.34 ± 0.1
SMNRV | inactive
KSVQKMAWTVRCELYLHTG | inactive
RWDVEIPNLQICKRT | inactive
KMCDECIVLS | inactive
HKMDWYIGLFRLMHTVAVLM | inactive
LLVTQGVYS | 1.17 ± 0.12
FPDTALLGCNCLFCLEGDGL | inactive
CMVFMYQILVPAWALRSYIL | inactive
SFWTQ | inactive
LFHSYLIHRLFPSNHSNFRM | inactive
CCACWGINHSYGLSTEVSQY | inactive
FFRVYYRSTGGVNM | inactive
REKTWFCSFIVTLGVCGWDG | inactive
VEHFNGHTRTVGCLFKRDLR | inactive

Substance | amyloid nucleation score
SMANFTAETSDIRINFIVSM | 0.779 ± 0.14
NVCRLRIFRSVYLLGYYTST | inactive
WETLLKPWQA | inactive
FYSIPMLRLVVNNVLKLTAI | inactive
KWLYTDYRVISSHILKHLSA | inactive
CRYESVYLNVEILPVTVAVV | inactive
NALTNSVKLFVLQTIVVYMR | inactive
HMWLFKIQDLMLAHPITGSW | inactive
YHCNGPGSLWSTNLACRSME | inactive
DTQQENCRTRGVRRGPRFCG | inactive
MWLPPAVQVLLILKAVIVKL | inactive
TRLSSFRKIKEIYLLTQWKP | inactive
WLSDNSSNDLQYHYSSSKIM | inactive
MELNLNKSSAYYKSVHFSVT | -0.053 ± 0.3
GAYVKPNEWCEGFENSSFEV | inactive
EDNRTTVVFTGEC | inactive
NNIPCGMGPSSSSCNASD | inactive
LSCHTKETFPDDG | inactive
LFLSDKLPTFSRLNKCMLGV | -1.31 ± 1.9
RDVIRRVVRMHLQLYMFMVG | -0.135 ± 0.98
WSDWRLIKFNFRRSYLCLLW | inactive
IAMSRSACRYVFECYIYFFF | inactive
QSNEASCSGCLISKVLKNDN | inactive

Substance | amyloid nucleation score
MYTQCLVYSR | inactive
FPYVLVSTPVSPPICW | inactive
MVVVPDQLRVTGMRSGGKSG | inactive
HFVTDDNGGICDVDNV | inactive
LSVSIGVVGF | inactive
YCFDI | inactive
CIPPCW | inactive
VSYTYAGYSIRYIVFSS | inactive
TSNALYLLLLRHLYNMLLHV | inactive
FYIYWLFPIIVSFDYVFSGL | inactive
MKIGETYDLTSINPAAWNVR | inactive
CYLVGLCLLFGVQVSGLPYR | 0.798 ± 0.26
MYRQGGCVIHWSNVG | inactive
SDNELMIAFESG | inactive
FYITFFECD | inactive
FLLVSLAA | inactive
LTDDSCCPRR | inactive
SVKKESCCD | inactive
